Where “and” joins values, the source holds several entries; their conditions need not be identical. Identical values can stand only once.

This series deals with the molecule itself. The series is described as follows: crystal structure.

B1: N-terminal lipid-binding domain of Mycobacterium tuberculosis Wag31 (residues 2-60) (domain or fragment)
chain: PLTPADVHNVAFSKPPIGKRGYNEDEVDAFLDLVENELTRLIEENSDLRQRINELDQEL
notes: Assembly states reported: parallel coiled-coil dimer (asymmetric unit), tetramer ('dimer-of-dimers'); also called N-Wag31; N-terminal Wag31
One may read the stoichiometry N as a count of units in the complex or per binding partner. Regarding B1, the “stoichiometry N” value is 2 and 4.

For the origin of these results see paper PMC7340271 (IUCrJ, 2020).
